Assay results published in the supplement of paper PMC5998384.

Legend:
[1] = system: HeLa Kyoto; experiment: solubility change mitosis vs G1/S (difference of NP-40 vs SDS log2 ratios) (log2 ratio difference); higher = more soluble in mitosis
[2] = system: HeLa Kyoto; experiment: solubility in G1/S (NP-40 vs SDS abundance) (log2 ratio); higher = more soluble; details: cell cycle stage: G1/S
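For solubility change mitosis vs G1/S (difference of NP-40 vs SDS log2 ratios) in this document: synchronized HeLa Kyoto cells (double thymidine block for G1/S, nocodazole release for mitosis), protein amounts in NP-40 versus SDS lysates quantified by mass spectrometry, three biological replicates.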
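For solubility in G1/S (NP-40 vs SDS abundance) in this document: HeLa Kyoto cells arrested at G1/S by double thymidine block, proteins quantified by TMT10plex mass spectrometry in mild NP-40 versus SDS extracts, three biological replicates.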

Row | Sequence | solubility change mitosis (log2) [1] | solubility in G1/S (log2) [2]
1 | MSLERELRQLSKAKAKAQRAGQRREEAALCHQLGELLAGHGRYAEALEQHWQELQLRERADDPLGCAVAHRKIGERLAEMEDYPAALQHQHQYLELAHSLRNHTELQRAWATIGRTHLDIYDHCQSRDALLQAQAAFEKSLAIVDEELEGTLAQGELNEMRTRLYLNLGLTFESLQQTALCNDYFRKSIFLAEQNHLYEDLFRARYNLGTIHWRAGQHSQAMRCLEGARECAHTMRKRFMESECCVVIAQVLQDLGDFLAAKRALKKAYRLGSQKPVQRAAICQNLQHVLAVVRLQQQLEEAEGRDPQGAMVICEQLGDLFSKAGDFPRAAEAYQKQLRFAELLDRPGAERAIIHVSLATTLGDMKDHHGAVRHYEEELRLRSGNVLEEAKTWLNIALSREEAGDAYELLAPCFQKALSCAQQAQRPQLQRQVLQHLHTVQLRLQPQEAPETETRLRELSVAEDEDEEEEAEEAAATAESEALEAGEVELSEGEDDTDGLTPQLEEDEELQGHLGRRKGSKWNRRNDMGETLLHRACIEGQLRRVQDLVRQGHPLNPRDYCGWTPLHEACNYGHLEIVRFLLDHGAAVDDPGGQGCEGITPLHDALNCGHFEVAELLLERGASVTLRTRKGLSPLETLQQWVKLYRRDLDLETRQKARAMEMLLQAAASGQDPHSSQAFHTPSSLLFDPETSPPLSPCPEPPSNSTRLPEASQAHVRVSPGQAAPAMARPRRSRHGPASSSSSSEGEDSAGPARPSQKRPRCSATAQRVAAWTPGPASNREAATASTSRAAYQAAIRGVGSAQSRLGPGPPRGHSKALAPQAALIPEEECLAGDWLELDMPLTRSRRPRPRGTGDNRRPSSTSGSDSEESRPRARAKQVRLTCMQSCSAPVNAGPSSLASEPPGSPSTPRVSEPSGDSSAAGQPLGPAPPPPIRVRVQVQDHLFLIPVPHSSDTHSVAWLAEQAAQRYYQTCGLLPRLTLRKEGALLAPQDLIPDVLQSNDEVLAEVTSWDLPPLTDRYRRACQSLGQGEHQQVLQAVELQGLGLSFSACSLALDQAQLTPLLRALKLHTALRELRLAGNRLGDKCVAELVAALGTMPSLALLDLSSNHLGPEGLRQLAMGLPGQATLQSLEELDLSMNPLGDGCGQSLASLLHACPLLSTLRLQACGFGPSFFLSHQTALGSAFQDAEHLKTLSLSYNALGAPALARTLQSLPAGTLLHLELSSVAAGKGDSDLMEPVFRYLAKEGCALAHLTLSANHLGDKAVRDLCRCLSLCPSLISLDLSANPEISCASLEELLSTLQKRPQGLSFLGLSGCAVQGPLGLGLWDKIAAQLRELQLCSRRLCAEDRDALRQLQPSRPGPGECTLDHGSKLFFRRL [TONSL] | 0.119 | -0.116
2 | MLSPQRALLCNLNHIHLQHVSLGLHLSRRPELQEGPLSTPPPPGDTGGKESRGPCSGTLVDANSNSPAVPCRCCQEHGPGLENRQDPSQEEEGAASPSDPGCSSSLSSCSDLSPDESPVSVYLRDLPGDEDAHPQPSIIPLEQGSPLASAGPGTCSPDSFCCSPDSCSGASSSPDPGLDSNCNALTTCQDVPSPGLEEEDERAEQDLPTSELLEADDGKIDAGKTEPSWKINPIWKIDTEKTKAEWKTTENNNTGWKNNGNVNSSWKSEPEKFDSGWKTNTRITDSGSKTDAGKIDGGWRSDVSEEPVPHRTITSFHELAQKRKRGPGLPLVPQAKKDRSDWLIVFSPDTELPPSGSPGGSSAPPREVTTFKELRSRSRAPAPPVPPRDPPVGWALVPPRPPPPPVPPRRKKNRPGLQPIAEGQSEEGRAVSPAAGEEAPAAKEPGAQAGLEVRSSWSFAGVPGAQRLWMAEAQSGTGQLQEQKKGLLIAVSVSVDKIISHFGAARNLVQKAQLGDSRLSPDVGHLVLTTLCPALHALVADGLKPFRKDLITGQRRSSPWSVVEASVKPGSSTRSLGTLYSQVSRLAPLSSSRSRFHAFILGLLNTKQLELWFSSLQEDAGLLSLLYLPTGFFSLARGGCPSLSTELLLLLQPLSVLTFHLDLLFEHHHHLPLGPPQAPAPPGPPPALQQTMQAMLHFGGRLAQSLRGTSKEAASDPSDSPNLPTPGSWWEQLTQASRVYASGGTEGFPLSRWAPGRHGTAAEEGAQERPLPTDEMAPGRGLWLGRLFGVPGGPAENENGALKSRRPSSWLPPTVSVLALVKRGAPPEMPSPQELEASAPRMVQTHRAVRALCDHTAARPDQLSFRRGEVLRVITTVDEDWLRCGRDGMEGLVPVGYTSLVL [RUSC1] | -0.133 | 0.182
3 | MKRQSERDSSPSGRGSSSSAKRPREREREAEAGGRRAAHKASGGAKHPVPARARDKPRGSGSGGGGHRDGRGTGDANHRASSGRSSGSGAGGGGRGGKASGDPGASGMSPRASPLPPPPPPPGAEPACPGSSAAAPEYKTLLISSLSPALPAEHLEDRLFHQFKRFGEISLRLSHTPELGRVAYVNFRHPQDAREARQHALARQLLLYDRPLKVEPVYLRGGGGSSRRSSSSSAAASTPPPGPPAPADPLGYLPLHGGYQYKQRSLSPVAAPPLREPRARHAAAAFALDAAAAAAVGLSRERALDYYGLYDDRGRPYGYPAVCEEDLMPEDDQRATRNLFIGNLDHSVSEVELRRAFEKYGIIEEVVIKRPARGQGGAYAFLKFQNLDMAHRAKVAMSGRVIGRNPIKIGYGKANPTTRLWVGGLGPNTSLAALAREFDRFGSIRTIDHVKGDSFAYIQYESLDAAQAACAKMRGFPLGGPDRRLRVDFAKAEETRYPQQYQPSPLPVHYELLTDGYTRHRNLDADLVRDRTPPHLLYSDRDRTFLEGDWTSPSKSSDRRNSLEGYSRSVRSRSGERWGADGDRGLPKPWEERRKRRSLSSDRGRTTHSPYEERSRTKGSGQQSERGSDRTPERSRKENHSSEGTKESSSNSLSNSRHGAEERGHHHHHHEAADSSHGKKARDSERNHRTTEAEPKPLEEPKHETKKLKNLSEYAQTLQLGWNGLLVLKNSCFPTSMHILEGDQGVISSLLKDHTSGSKLTQLKIAQRLRLDQPKLDEVTRRIKQGSPNGYAVLLATQATPSGLGTEGMPTVEPGLQRRLLRNLVSYLKQKQAAGVISLPVGGSKGRDGTGMLYAFPPCDFSQQYLQSALRTLGKLEEEHMVIVIVRDTA [RBM15B] | 0.504 | -0.311
4 | MVYISNGQVLDSRSQSPWRLSLITDFFWGIAEFVVLFFKTLLQQDVKKRRSYGNSSDSRYDDGRGPPGNPPRRMGRINHLRGPSPPPMAGGUGR [SELK] | 0.31 | 0.000519
5 | MDRGQPSLEPAAAAPRASGRCVIAPVRAVLRLRRRVCVLRKRRLLQPGGGPDVGTGAPRPGCSPRAPRADLDQPKFFTFDSPAELPSRTPRKKRRRSRLVLYPETSRKYRPRVEHRSRAQRCLLLLVAIVGFQVLNAIENLDDNAQRYDLDGLEKALQRAVFGQPAAVSRIVALMRDYLATHVHSRPLLLALHGPSGVGKSHVGRLLARHFRSVLEDSALVLQYHARHHCPEARAAQDCREELARRVADVVARAEAEEKTPLLVLDDVELMPRPLLDELHGFLQPQRSHHFHNAIYVLLSGAGGAEVTRFVLQNASRALPLRPDGFRSAEAAAAQAEEDLRASLLAVLSREHPLWQAAAIVPFLLLDKRDVVSCFRDEMAGEGFFPDQARAENLAAQLSFYRVAGREFAVTGCKQVVATVNLL [TOR4A] | 0.0625 | 0.137
6 | MVRTKADSVPGTYRKVVAARAPRKVLGSSTSATNSTSVSSRKAENKYAGGNPVCVRPTPKWQKGIGEFFRLSPKDSEKENQIPEEAGSSGLGKAKRKACPLQPDHTNDEKE [KIAA0101] | 0.256 | -0.0358
7 | MVLLHVKRGDESQFLLQAPGSTELEELTVQVARVYNGRLKVQRLCSEMEELAEHGIFLPPNMQGLTDDQIEELKLKDEWGEKCVPSGGAVFKKDDIGRRNGQAPNEKMKQVLKKTIEEAKAIISKKQVEAGVCVTMEMVKDALDQLRGAVMIVYPMGLPPYDPIRMEFENKEDLSGTQAGLNVIKEAEAQLWWAAKELRRTKKLSDYVGKNEKTKIIAKIQQRGQGAPAREPIISSEEQKQLMLYYHRRQEELKRLEENDDDAYLNSPWADNTALKRHFHGVKDIKWRPR [C21ORF59] | 0.0264 | 0.335
8 | MRPLDIVELAEPEEVEVLEPEEDFEQFLLPVINEMREDIASLTREHGRAYLRNRSKLWEMDNMLIQIKTQVEASEESALNHLQNPGDAAEGRAAKRCEKAEEKAKEIAKMAEMLVELVRRIEKSESS [MRFAP1] | 0.549 | 0.156
9 | MERVNDASCGPSGCYTYQVSRHSTEMLHNLNQQRKNGGRFCDVLLRVGDESFPAHRAVLAACSEYFESVFSAQLGDGGAADGGPADVGGATAAPGGGAGGSRELEMHTISSKVFGDILDFAYTSRIVVRLESFPELMTAAKFLLMRSVIEICQEVIKQSNVQILVPPARADIMLFRPPGTSDLGFPLDMTNGAALAANSNGIAGSMQPEEEAARAAGAAIAGQASLPVLPGVDRLPMVAGPLSPQLLTSPFPSVASSAPPLTGKRGRGRPRKANLLDSMFGSPGGLREAGILPCGLCGKVFTDANRLRQHEAQHGVTSLQLGYIDLPPPRLGENGLPISEDPDGPRKRSRTRKQVACEICGKIFRDVYHLNRHKLSHSGEKPYSCPVCGLRFKRKDRMSYHVRSHDGSVGKPYICQSCGKGFSRPDHLNGHIKQVHTSERPHKCQTCNASFATRDRLRSHLACHEDKVPCQVCGKYLRAAYMADHLKKHSEGPSNFCSICNRGFSSASYLKVHVKTHHGVPLPQVSRHQEPILNGGAAFHCARTYGNKEGQKCSHQDPIESSDSYGDLSDASDLKTPEKQSANGSFSCDMAVPKNKMESDGEKKYPCPECGSFFRSKSYLNKHIQKVHVRALGGPLGDLGPALGSPFSPQQNMSLLESFGFQIVQSAFASSLVDPEVDQQPMGPEGK [PATZ1] | 0.402 | -0.643
10 | MELAQEARELGCWAVEEMGVPVAARAPESTLRRLCLGQGADIWAYILQHVHSQRTVKKIRGNLLWYGHQDSPQVRRKLELEAAVTRLRAEIQELDQSLELMERDTEAQDTAMEQARQHTQDTQRRALLLRAQAGAMRRQQHTLRDPMQRLQNQLRRLQDMERKAKVDVTFGSLTSAALGLEPVVLRDVRTACTLRAQFLQNLLLPQAKRGSLPTPHDDHFGTSYQQWLSSVETLLTNHPPGHVLAALEHLAAEREAEIRSLCSGDGLGDTEISRPQAPDQSDSSQTLPSMVHLIQEGWRTVGVLVSQRSTLLKERQVLTQRLQGLVEEVERRVLGSSERQVLILGLRRCCLWTELKALHDQSQELQDAAGHRQLLLRELQAKQQRILHWRQLVEETQEQVRLLIKGNSASKTRLCRSPGEVLALVQRKVVPTFEAVAPQSRELLRCLEEEVRHLPHILLGTLLRHRPGELKPLPTVLPSIHQLHPASPRGSSFIALSHKLGLPPGKASELLLPAAASLRQDLLLLQDQRSLWCWDLLHMKTSLPPGLPTQELLQIQASQEKQQKENLGQALKRLEKLLKQALERIPELQGIVGDWWEQPGQAALSEELCQGLSLPQWRLRWVQAQGALQKLCS [HAUS5] | -0.0591 | 0.307
11 | MAGWWPALSRAARRHPWPTNVLLYGSLVSAGDALQQRLQGREANWRQTRRVATLVVTFHANFNYVWLRLLERALPGRAPHALLAKLLCDQVVGAPIAVSAFYVGMSILQGKDDIFLDLKQKFWNTYLSGLMYWPFVQLTNFSLVPVQWRTAYAGVCGFLWATFICFSQQSGDGTFKSAFTILYTKGTSATEGYPKK [MPV17L] | -0.192 | -0.145
